Experimental data published in publication PMC9060507 (Proceedings of the National Academy of Sciences of the …, 2022).

Molecular target: T1, Methylosinus trichosporium OB3b MbnBC enzyme complex (wild type) (Methylosinus trichosporium OB3b, UniProt A0A2D2D5M1;A0A2D2CY73)
T1 sequence 1: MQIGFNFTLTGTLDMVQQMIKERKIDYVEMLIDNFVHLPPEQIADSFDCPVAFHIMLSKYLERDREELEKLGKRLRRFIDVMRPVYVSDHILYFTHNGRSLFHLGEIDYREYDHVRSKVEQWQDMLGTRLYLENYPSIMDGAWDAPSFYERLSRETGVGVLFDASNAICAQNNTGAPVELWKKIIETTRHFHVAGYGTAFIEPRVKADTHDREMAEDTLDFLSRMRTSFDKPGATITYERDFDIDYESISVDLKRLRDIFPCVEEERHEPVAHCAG
T1 sequence 2: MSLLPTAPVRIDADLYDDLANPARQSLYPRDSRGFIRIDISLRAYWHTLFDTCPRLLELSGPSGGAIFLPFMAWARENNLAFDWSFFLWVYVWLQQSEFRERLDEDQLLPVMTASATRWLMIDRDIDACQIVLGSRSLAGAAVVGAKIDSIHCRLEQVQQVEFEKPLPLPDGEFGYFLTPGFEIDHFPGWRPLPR
Assay: EPR spectroscopy

## MTVKIAQKKVLPVIGRAAALCGSCYPCSCM [MbnA precursor peptide from Ms. trichosporium OB3b]
  binding result: binds
